From patent US20220275075A1 (PARACRINE THERAPEUTICS, published 2022) come the findings set out here.

First the molecules themselves.
B2: monoclonal antibody 6B3 (antibody, mouse IgG2a, V domains shown)
VH: QVQLQQSGVEVARPGASVKLSCKASGYTFRSYGITWVRQRTGQGLEWIGEIYPRSGKTYYNEKFKGKATLTADTSSSTVYMELRSLTSEDSAVYFCAREGYGYDGGYFDYWGQGTTLTVSS
VL: DIVMTQSPSSLAMSVGQKVTMSCKSSQSLLNSRNQKNYLAWYQQKPGQSPKLLVYFASTRESGVPDRFTGSGSGTDFTLTISSVQAEDLAVYYCQQHYSTPLTFGAGTKLELKR
notes: The variable domains are identical to those of 19C7; also called mu6B3; murine 6B3
B7: Peptide 3 (SVSIREELKRTDTIFWPGC) (peptide)
peptide: SVSIREELKRTDTIFWPGC
notes: Synthetic peptide; also called PDGFC peptide 3

Test [1] deals with T1, recombinant human PDGF-AA (human, UniProt P04085 87-211).
T1 construct: Bought; The construct is not described
Nature of the test: ELISA on coated PDGF-AA, -BB, -CC, -DD and BSA. Background: An ELISA detects its analyte on a solid surface through an enzyme-linked reagent.

Test [2] deals with T2, recombinant human PDGF-BB (human, UniProt P01127 82-190).
T2 construct: Bought; The construct is not described; also called PB
Nature of the test: ELISA on coated PDGF-AA, -BB, -CC, -DD and BSA.

The target in test [3] is T3, recombinant human PDGF-CC active core domain protein with terminal histidine tag (human, UniProt Q9NRA1 231-345).
T3 construct: Made in baculovirus-infected Sf9 cells; The position of the tag in the chain is not known; also called RhPC; RhPCc; not shown: terminal histidine tag
Nature of the test: ELISA on coated PDGF-AA, -BB, -CC, -DD and BSA.

Test [4] has as its target T4, recombinant human PDGF-DD (human, UniProt Q9GZP0 250-370, limits assumed).
T4 construct: The construct is not described; also called PDGF-D polypeptide; PDGF-DD (R&D)
Description: ELISA on coated PDGF-AA, -BB, -CC, -DD and BSA.

In test [5] the target is T5, corresponding PDGF-D peptide SVNIREELKC (human).
T5 construct: Synthesised with a C-terminal cysteine; also called alternate peptide
T5 peptide: SVNIREELKC
Nature of the test: Biacore, 6B3 over thiol-immobilised peptide. The protocol: Samples of 6B3 antibody (1.334 μM) was injected (30 μL at 10 μL/min) in HBS buffer over the immobilized peptides.
(Surface plasmon resonance follows binding to a sensor surface in real time, without labels.)

Test [6] deals with B7. Nature of the test: SPR, 6B3 (20.8 nM-667 nM) over thiol-immobilised peptide 3. The protocol: Peptide 3 was immobilized on channel 4 of the carboxymethyldextran-coated sensor chip using thiol chemistry. Briefly, the chip was activated on channel 4 using standard amine coupling chemistry (0.05M NHS/0.2M EDC) followed by 80 mM (2-(2-pyridinyldithio)ethane amine (PDEA) in 1M borate PH 8.2. Peptide 3 (100 nM in 10 mM sodium acetate pH 4.5) was conjugated via its C-terminal cysteine to PDEA. The chip was then blocked using 40 mM L-cysteine in 10 mM sodium acetate pH 4.0 and 1 M ethanolamine pH 8.2. A blank derivatised channel was used as the control channel.
Samples of antibody 6B3 (20.8 nM-667 nM) were injected (30 μL at 10 μL/min) in HBS buffer over immobilized peptide 3. Specific binding was observed as compared to the blank channel and then investigated further with smaller overlapping peptide sequences (data not shown).

The target in a further test is T6, RTDTIFWPGC
T6 peptide: RTDTIFWPGC
Nature of the test: Biacore, 6B3 at 20.8 nM-667 nM over thiol-immobilised peptide.

The target in test [7] is T7, PDGF-C peptide epitope SVSIREELKC (human).
T7 construct: Synthesised with a C-terminal cysteine for thiol immobilisation on the sensor chip
T7 peptide: SVSIREELKC
The test is described as above.

Test [8] concerns the target T8, overlapping PDGF-C peptide EELKRTDTIFC (human).
T8 construct: Synthesised with a C-terminal cysteine for thiol immobilisation
T8 peptide: EELKRTDTIFC
The description is as above.

Test [9] has as its target T1, recombinant human PDGF-AA. Nature of the test: ELISA, PDGF ligands coated at 1 µg/ml, purified mAb at 1.5 µg/ml. The protocol: (§1) Following immunisation of mice and splenic fusions by standard procedures, the supernatant of 16 hybridomas were initially assessed for PDGF-CC binding specificity by ELISA and Western analysis. A sensitive ELISA assay was employed to explore this using commercially available PDGF-AA, PDGF-BB, PDGF-DD and recombinant PDGF-CC. Specifically, antigen immobilization of purified recombinant human PDGF ligands, PDGF-AA, BB, CC and DD diluted in 100 mM NaHCO₃ at the concentration of 1μg/ml, was performed overnight at +4° C. Thereafter, all incubations were done at room temperature 1.5-2 hours and washes carried out with PBS. In triplicate, hybridoma supernatants were applied at a dilution of 1:2 in PBS/1% bovine serum albumin (BSA), or purified monoclonal antibody (mAbs) was added (1.5μg/ml in 3% BSA). A rabbit polyclonal IgG—purified antibody was used as positive control (4 μg/ml). Binding was detected with an anti—mouse (or anti—rabbit in control) alkaline phosphatase—conjugated secondary antibody and visualized by incubation with alkaline phosphatase yellow (pNPP) liquid substrate system for ELISA (Sigma—Aldrich). Absorbance was read at 405 nm.

The target of test [10] is T2, recombinant human PDGF-BB. The test is described as above. As to the method: as §1
For test [11], the target named is T4, recombinant human PDGF-DD. The test is described as above. The protocol:
as §1

Test [12] concerns the target T9, mouse PDGF-C core protein (mouse, UniProt Q8CI19 231-345, limits assumed).
T9 construct: also called COSmPCcoremedia
Description: immunoblot of COS-1 supernatant with mouse PDGF-C core, probed with purified antibody. As to the method: To produce the mouse PDGF-CC protein, COS-1 cells were transfected with mouse PDGF-C core plasmid constructed in expression vector pCDNA3.1 (Invitrogen). Transfection using lipofectamine plus reagent (Invitrogen) was performed according to the manufacturer's instructions. Transfected cells were cultured in serum free media. At 24 hours post-transfection, culture supernatant (COSmPCcoremedia) was collected and 30 μl sample was loaded on SDS-PAGE together with human PDGF-C core protein (0.1 μg RhPcc) and proteins separated by SDS-PAGE. Protein was then isolated using standard means.

The target in test [13] is T3, recombinant human PDGF-CC active core …. Nature of the test: SPR, BIAcore 2000, His-tagged PDGF-CC on Ni-NTA chip, antibody as analyte, 1:1 Langmuir fit (apparent). The protocol: Biosensor analyses were performed on a BIAcore 2000 biosensor using an NTA sensor chip. Briefly, a NTA sensor chip was loaded with Ni 2+ and used to immobilize histidine tagged PDGF-CC ligand. The PDGF-CC antibodies were passed over the chip at varying concentrations in order to determine apparent affinity (KD). Chips were regenerated with EGTA. The chip was re-equilibrated by washing with HBS (containing no EDTA) before further analyses. Using BIAevaluation software, a 1:1 Langmuir binding analysis model was used to estimate the apparent association (ka) and disassociation (kd) rate constants for each set of antibody experiments.

Test [14] concerns the target T4, recombinant human PDGF-DD. Description: immunoblot of recombinant PDGF-D after SDS-PAGE, probed with hybridoma supernatant, exposure 10 seconds.
The target of the test “monoclonal antibody 6B3” is B2. Description: Biacore competition: 6B3 (333 nM) with soluble peptide injected over immobilised PDGF-CC core protein, maximum response plotted. The protocol: Biosensor analyses were performed on a BlAcore 2000 biosensor using a carboxymethyldextran-coated sensor chip (Xantec CMD). The chip was derivatised on channel 2 with the PDGF-CC core antigen (60 μg/mL) using standard amine coupling chemistry (0.05M NHS/0.2M EDC). Channel 1 was derivatised with ethanolamine and used as a blank control channel for correction of refractive index effects.
After the injection phase, the dissociation was monitored by flowing HBS buffer over the chip surface for 360s. Bound antibody was eluted and the chip surface regenerated between samples by injection of 30 μl of 10 mM Glycine pH 2.0

T2 sequence (P01127 82-190): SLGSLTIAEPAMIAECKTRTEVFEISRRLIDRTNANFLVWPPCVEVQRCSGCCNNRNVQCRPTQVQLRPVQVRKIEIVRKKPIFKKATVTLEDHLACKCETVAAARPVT
T4 sequence (Q9GZP0 250-370 limits assumed): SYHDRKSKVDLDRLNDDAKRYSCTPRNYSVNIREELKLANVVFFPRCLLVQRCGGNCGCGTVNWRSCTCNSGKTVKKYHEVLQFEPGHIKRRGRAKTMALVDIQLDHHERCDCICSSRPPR
T3 sequence (Q9NRA1 231-345 limits assumed): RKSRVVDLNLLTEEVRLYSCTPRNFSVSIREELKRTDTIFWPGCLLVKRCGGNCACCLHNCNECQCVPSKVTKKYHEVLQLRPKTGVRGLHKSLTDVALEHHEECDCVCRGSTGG
T9 sequence (Q8CI19 231-345 limits assumed): as the sequence (Q9NRA1 231-345 limits assumed) above, with R1K, R4K, D7N, T12K, R16K, S69R, R88K, S112N, T113A counted along it

B1: humanized anti-PDGF-CC antibody 6B3 (hu6B3), heavy chain R30 (antibody, V domains shown)
VH: QVQLVQSGAEVKKPGASVKVSCKASGYTFRSYGITWVRQATGQGLEWMGEIYPRSGKTGYAQKFQGRVTMTADTSTSTVYMELRSLRSEDSAVYFCAREGYGYDGGYFDYWGQGTLVTVSS
VL: DIVMTQSPSSLAMSVGERATINCKSSQSLLNSRNQKNYLAWYQQKPGQPPKLLIYFASTRESGVPDRFSGSGSGTDFTLTISSVQAEDVAVYYCQQHYSTPLTFGGGTKVELKR
notes: Human IgG1 kappa as the final form; also called hu6B3 R; hu6B3 R30
For the molecule B1, the binding result in test [1] is “no binding”; in test [2], “no binding”; in test [3], “binds”; in test [4], “no binding”.

Turning to B2, the binding result is “no binding (tested: 1.334 µM (legend; paragraph 184 says 667 nM))” in test [5]; “binds” in [6]; “binds” in the test with RTDTIFWPGC; “binds” in test [7]; “no binding (tested: 667 nM)” in test [8]; “no binding (tested: 1.5 µg/ml)” in [9]. In addition, the binding result is on record as “no binding (tested: 1.5 µg/ml)” in [10], “no binding (tested: 1.5 µg/ml)” in test [11] and “no binding” in test [12]. Further, in [13], the Kd worked out at 0.9 nM. Moreover, the koff (as a rule, a measure of how fast the partners let go of each other) in [13] is 0.0015 s⁻¹. Also, the kon (commonly the second-order rate constant of association) in test [13] worked out at 1.8e+06 M⁻¹ s⁻¹.

B3: monoclonal antibody 11F5 (antibody, mouse IgG2a, V domains shown)
VH: QVQLQQSGAELARPGASVKLSCKASGYIFISYGISWVKQRTGQGLEWIGEIYPRSGKTYYNEKFKDKAALTADKSSSIAYMELRSLTSEDSAVYFCAREGYGYDGGYFDYWGQGTILTVSS
VL: DIVMTQSPSSLAMSVGQKVAVSCKSSQSLLNSSNQKNYLAWYQQKPGQSPKLLVYFASTRDSGVPDRFTGSGSGTDFTLTISSVQAEDLAVYYCQQHYSTPLTFGAGTKLELKR
notes: Murine IgG2a, kappa light chain
Regarding B3, the binding result in test [9] is on record as “no binding (tested: 1.5 µg/ml)”. For the same molecule, the binding result in [10] is reported as “no binding (tested: 1.5 µg/ml)”. Besides, in test [13], the Kd was 1.05 nM, the koff amounted to 0.00058 s⁻¹ and the kon worked out at 640000 M⁻¹ s⁻¹. For the same molecule, the binding result in test [14] is listed as “no binding”.

B4: monoclonal antibody 19C7 (antibody, mouse IgG2a, V domains shown)
VH: QVQLQQSGVEVARPGASVKLSCKASGYTFRSYGITWVRQRTGQGLEWIGEIYPRSGKTYYNEKFKGKATLTADTSSSTVYMELRSLTSEDSAVYFCAREGYGYDGGYFDYWGQGTTLTVSS
VL: DIVMTQSPSSLAMSVGQKVTMSCKSSQSLLNSRNQKNYLAWYQQKPGQSPKLLVYFASTRESGVPDRFTGSGSGTDFTLTISSVQAEDLAVYYCQQHYSTPLTFGAGTKLELKR
notes: as for B3
In the case of B4, the binding result in [9] is listed as “no binding (tested: 1.5 µg/ml)”. The binding result in [10] is recorded as “no binding (tested: 1.5 µg/ml)”. In addition, the binding result in test [11] was “no binding (tested: 1.5 µg/ml)”. Further, in test [13], the Kd was 0.7 nM, the koff stood at 0.0016 s⁻¹ and the kon was found to be 2.2e+06 M⁻¹ s⁻¹.

B5: chimeric anti-PDGF-CC antibody 6B3 (ch6B3) (antibody, V domains shown)
VH: QVQLQQSGVEVARPGASVKLSCKASGYTFGSYGITWVRQRTGQGLEWIGEIYPRSGKTYYNEKFKGKATLTADTSSSTVYMELRSLTSEDSAVYFCAREGYGYDGGYFDYWGQGTTLTVSS
VL: DIVMTQSPSSLAMSVGQKVTMSCKSSQSLLNSRNQKNYLAWYQQKPGQSPKLLVYFASTRESGVPDRFTGSGSGTDFTLTISSVQAEDLAVYYCQQHYSTPLTFGAGTKLELKR
notes: also called chimeric 6B3; mouse-human chimeric antibody 6B3
Consider B5, for which the binding result in [1] is “no binding”. For the same molecule, the binding result in test [2] is given as “no binding”. The binding result in test [4] was “no binding”. In [13], the Kd is 0.7 nM, the koff amounted to 0.00041 s⁻¹ and the kon is 600000 M⁻¹ s⁻¹.

B6: monoclonal antibody 12F5 (antibody, mouse IgG2a, V domains shown)
VH: EVKLEESGGGLVQPGGSRELSCEGSGFTFSGFWMSWVRQTPGKTLEWIGDINSDGSAIIYAPSIKDRFTIFRDNDKSTLYLQMNNVRSEDTATYFCMRWGYYGSNYFDYWGQGTTLTVSS
VL: DVVMTQTPLSLPVSLGDQASISCRSSQSIVHSNGNTYLHWYLQKPGQSPKLLIYRVSNRFSGVPDRFSGSGSGTDFTLKISRVEAEDMGVYYCFQGTHVPFTFGSGTKLEIKR
notes: Murine IgG2a, kappa light chain; also called anti-PDGF-CC mAb 12F5
In the case of B6, the binding result in test [9] is recorded as “no binding (tested: 1.5 µg/ml)”. In addition, the binding result in test [10] is “no binding (tested: 1.5 µg/ml)”. In addition, in [11], the binding result is given as “no binding (tested: 1.5 µg/ml)”. In addition, in test [13], the Kd is 2.2 nM, the koff was 0.0002 s⁻¹ and the kon was determined as 90000 M⁻¹ s⁻¹.

In the case of B7, the binding result with monoclonal antibody 6B3 is given as “binds”.
